Target: streptavidin (UniProt P22629 25-183)
Test: plate binding assay, liposome SRB fluorescence; at least 10-fold over aptamer-free liposomes; displaced by biotin; Streptavidin (10 ug/ml) coated plate, blocked with 1% BSA and 0.01 mg/ml salmon sperm DNA in TBS; 80 ul liposomal aptamer 1 h at RT; washes in TBS-sucrose; pH and salt not given
Conditions: protein: commercial; chain copies: 4; label: SRB-encapsulating liposome

Chain of streptavidin (P22629 25-183): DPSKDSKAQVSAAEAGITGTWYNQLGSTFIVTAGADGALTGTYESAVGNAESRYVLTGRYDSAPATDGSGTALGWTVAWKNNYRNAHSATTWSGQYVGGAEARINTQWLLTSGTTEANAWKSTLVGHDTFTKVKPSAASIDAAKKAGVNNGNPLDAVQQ

Question: Does ATTGACCTCTGTGTGACGCAACACTCAAT (structured_DNA, 3'-TEG-cholesterol) [ST-21M liposomal aptamer] bind?
Answer: binds

Question: Does ATTGACCGCTGTGTGACGCAACACTCAAT (structured_DNA, 3'-TEG-cholesterol) [ST-21 liposomal aptamer] bind?
Answer: binds

Source: publication PMC4763257, “A replaceable liposomal aptamer for the ultrasensitive and rapid detection of biotin”
